{"source": "paper PMC4593522", "about": "“Development of a Radiolabeled Peptide-Based Probe Targeting MT1-MMP for Breast Cancer Detection” (PLoS ONE, 2015)", "key": {"[1]": {"assay": "Partition coefficient (Log P), n-octanol / phosphate buffer", "format": "physicochemical", "settings": "shake-flask, equal volume mixture of n-octanol and phosphate buffer (25 mM, pH = 7.4); mean ± SD", "method": "[^99mTc]-(HYNIC-AF7P)(tricine)(TPPTS) was prepared in two steps. First, HYNIC-AF7P was synthesized (Fig 1) and reacted with Na^99mTcO4 in the presence of excess tricine and SnCl2 to form the intermediate [^99mTc]-(HYNIC-AF7P)(tricine)2, which was then allowed to react with TPPTS to form the ternary ligand complex [^99mTc](HYNIC-AF7P)(tricine)(TPPTS). […] The HPLC retention time was 9.2 min for [^99mTc](HYNIC-AF7P)(tricine)(TPPTS) and the specific activity of final product was 1200 mCi/μmol. The partition coefficient of [^99mTc]-(HYNIC-AF7P)(tricine)(TPPTS) was determined in an equal volume mixture of noctanoland phosphate buffer (25 mM, pH = 7.4). Log P value of [^99mTc]-(HYNIC-AF7P)(tricine)(TPPTS)was -2.39±0.06."}, "[2]": {"assay": "In vitro solution stability in saline (radio-HPLC)", "format": "physicochemical", "settings": "0.9% physiological saline, 37°C, 100 μL tracer in 400 μL total, mean ± SD", "method": "(§1) HYNIC-AF7p solution (20 μL, 60 μg/mL in H2O), of tricine solution (100 μL, 100 mg/mL in 25 mM succinate buffer, pH 5.0), SnCl2 solution (10 μL, 3 mg/mL in 0.1 M HCl) and Na^99mTcO4 (100 μL, 370 MBq) in saline were added into a 5 mL Eppendorf tube. The reaction mixture was kept at room temperature for 10 min. To the reaction mixture above was added 100 μL of the TPPTS solution (50 mg/mL in 25 mM succinate buffer, pH 5.0). The vial containing the reaction mixture was sealed, cramped, and heated at 90°C for 30 min. After cooling to room temperature, sample was analyzed by radio-HPLC. The radio-HPLC method used a HP Hewlett Packard Series 1100 HPLC system equipped with a Radioflow Detector LB509 and a reversed-phase Zorbax SB-C18 column (4.6 mm × 250 mm, 5 μm). The flow rate was 1 mL/min. The gradient mobile phase started with 90% solvent A (0.1% TFA in water) and 10% solvent B (0.1% TFA in acetonitrile) to 30% solvent A and 70% solvent B at 24 min to 0% solvent A and 100% solvent B at 27 min, followed with 90% solvent A and 10% solvent B at 30 min. […]\n(§2) 100 μL of [^99mTc]-(HYNIC-AF7P)(tricine)(TPPTS) was added to either 0.9% physiological saline or 1 mg/mL cysteine solution. […] After 1 h, 2 h, 3 h, 4 h, 5 h and 6 h incubation, the radiochemical purity for [^99mTc]-(HYNIC-AF7P)(tricine)(TPPTS) at each time point was detected by radio-HPLC as described above."}, "[3]": {"assay": "In vitro solution stability in the presence of excess cysteine (radio-HPLC)", "format": "physicochemical", "settings": "1 mg/mL cysteine, pH = 7.4, 37°C, mean ± SD", "method": "as §1, §2"}, "[4]": {"tested_on": "A549 tumor (little MT1-MMP)", "assay": "SPECT imaging of A549 tumor-bearing mice", "format": "in vivo", "settings": "i.v., A549 tumor bearing model, mean ± SD", "method": "All animal experiments were approved by Jilin University Health Science Center Animal Care and Use Committee. Human breast carcinoma cell line MDA-MB-231 with high MT1-MMP expression and human lung adenocarcinomaepithelial cell line A549 with low MT1-MMP expression were cultured in DMEM medium containing 10% (v/v) fetal bovine serum (Invitrogen) supplemented with penicillin (100 μg/mL) and streptomycin (100 μg/mL) at 37°C with 5% CO2. MDA-MB-231 and A549 tumor models were established by subcutaneous injection of 5×10^6 cells into the upper right front flank of female athymic nude mice (Department of Experimental Animal, Peking University Health Science Center). Tumor growth was monitored by caliper measurements three times a week after the tumors are palpable. The mice were used for SPET/CT imaging when the tumor volume reached about 200 mm3 (about 14 days after tumor inoculations). The tumor volume was determined as the formula: V = a × (b^2)/2, where a and b are the length and width of each tumor in mm respectively. During the injection and image acquisition process, the mice were anesthetized with 2.5% isoflurane in oxygen delivered at a flow rate of 1.5 L/min.\nThe imaging study was performed using the female BALB/c nude mice bearing the MDA-MB-231 tumors and A549 tumors. Each tumor-bearing mouse was administered intravenously with [^99mTc]-(HYNIC-AF7P)(tricine)(TPPTS) (22.2 MBq/mice) in 0.1 mL saline. For blocking test, 200 μg free AF7P was intravenously injected into MDA-MB-231 tumor bearing mice 30 min before [^99mTc]-(HYNIC-AF7P)(tricine)(TPPTS) was injected. Animals were placed prone on a two-head γ-camera (SIEMENS, E. CAM) equipped with a parallel-hole, low-energy, and high-resolution collimator. Posterior images were acquired at 0.5, 2 and 4 hours post injection (p.i.). The acquisition count limits were set at 700k. After completion of imaging, animals were sacrificed by cervical dislocation."}}, "note": "Square brackets hold non-standard residues; d marks the D form. Peptide text beside a SMILES is read from it. * marks the point of attachment. HYNIC = NNc1ccc(C(=O)*)cn1; AEEA = NCCOCCOCC(=O)O", "data": [{"smiles": "CC(C)C[C@H](NC(=O)[C@H](Cc1ccccc1)NC(=O)[C@@H](NC(=O)[C@H](CCCCN)NC(=O)[C@@H](NC(=O)[C@H](CC(N)=O)NC(=O)[C@H](Cc1c[nH]cn1)NC(=O)[C@H](CC(C)C)NC(=O)[C@H](Cc1c[nH]cn1)NC(=O)[C@H](CCCCN)NC(=O)[C@H](Cc1c[nH]c2ccccc12)NC(=O)[C@H](Cc1c[nH]cn1)NC(=O)c1ccc(NN)nc1)[C@@H](C)O)[C@@H](C)O)C(=O)NCCOCCOCC(=O)O", "note": "[[^99mTc]-(HYNIC-AF7P)(tricine)(TPPTS), metal not drawn] ({HYNIC}-HWKHLHNTKTFL[AEEA]-OH)", "values": [{"measurement": "Log P value (partition coefficient)", "setting": "[1]", "result": "-2.39±0.06"}, {"measurement": "original form (radiochemical purity) in saline", "setting": "[2]; after 6 hours incubation", "result": "93.5 ± 2.27", "unit": "%"}, {"measurement": "original form (radiochemical purity) in saline", "setting": "[2]; at the beginning", "result": "96.8 ± 1.12", "unit": "%"}, {"measurement": "original form (radiochemical purity) in solution containing excess cysteine", "setting": "[3]; after 6 hours incubation", "result": "94.2 ±1.72", "unit": "%"}, {"measurement": "original form (radiochemical purity) in solution containing excess cysteine", "setting": "[3]; at the beginning", "result": "96.8 ± 1.52", "unit": "%"}, {"measurement": "tumor uptake (SPECT ROI), A549 tumor", "setting": "[4]; 0.5 h p.i.", "result": "1.35±0.11", "unit": "%ID/g"}, {"measurement": "tumor uptake (SPECT ROI), A549 tumor", "setting": "[4]; 4 h p.i.", "result": "1.01± 0.00", "unit": "%ID/g"}, {"measurement": "tumor uptake (SPECT ROI), A549 tumor", "setting": "[4]; time point not printed (between 0.5 h and 4 h)", "result": "1.03±0.05", "unit": "%ID/g"}]}]}
